Results: US20240424129A1, “RECOMBINANT FUSION ANTIBODY, AND ANTIBODY-DRUG CONJUGATE AND USE THEREOF” (SUN YAT-SEN UNIVERSITY, priority 2021, published 2024)
Residue numbers refer to the chain shown, from its start. In names and notes the source's numbering stands.

B1: VHH0: non-fused anti-HER2 nanobody VHH-S84C-His6, SEQ ID NO: 32 (protein)
VHH: EVQLVESGGGLVQAGGSLRLSCAASGITFSINTMGWYRQAPGKQRELVALISSIGDTYYADSVKGRFTISRDNAKNTVYLQMNCLKPEDTAVYYCKRFRTAAQGTDYWGQGTQVTVSSHHHHHH
modifications: His6 tag
B2: VHH0-MMAF (conjugate)
VHH: B1 VHH
B3: Fused VHH3-MMAF (conjugate)
VHH: EVQLVESGGGLVQAGGSLRLSCAASGITFSINTMGWYRQAPGKQRELVALISSIGDTYYADSVKGRFTISRDNAKNTVYLQMNCLKPEDTAVYYCKRFRTAAQGTDYWGQGTQVTVSSHHHHHHLPETGGGASVSLLDDEL
B4: Fused VHH16-MMAF (conjugate)
VHH: B3 VHH with A132P, S133A, V134A, S135Y, L136R, L137G, D138V, D139G, E140D, L141D
B5: Fused VHH15-MMAF (conjugate)
VHH: B3 VHH with A132S, S133Y, V134K, S135Y, L136S, L137K, D138V, D139N, E140K, L141E
B6: Fused VHH4-MMAF (conjugate)
VHH: EVQLVESGGGLVQAGGSLRLSCAASGITFSINTMGWYRQAPGKQRELVALISSIGDTYYADSVKGRFTISRDNAKNTVYLQMNCLKPEDTAVYYCKRFRTAAQGTDYWGQGTQVTVSSHHHHHHHLPETGGGASSGLDDLDLLGK
B7: Fused VHH6-MMAF (conjugate)
VHH: B6 VHH with A133N, S134A, S135L, G136S, L137W, D138L, L140E, D141E, G144C, K145L
B8: Fused VHH24-MMAF (conjugate)
VHH: EVQLVESGGGLVQAGGSLRLSCAASGITFSINTMGWYRQAPGKQRELVALISSIGDTYYADSVKGRFTISRDNAKNTVYLQMNCLKPEDTAVYYCKRFRTAAQGTDYWGQGTQVTVSSHHHHHHHLPETGGGRRRRKRKRSHAGYQTI
B9: Fused VHH26-MMAF (conjugate)
VHH: EVQLVESGGGLVQAGGSLRLSCAASGITFSINTMGWYRQAPGKQRELVALISSIGDTYYADSVKGRFTISRDNAKNTVYLQMNCLKPEDTAVYYCKRFRTAAQGTDYWGQGTQVTVSSHHHHHHHLPETGGGRRLRKHHHAGYEQF
B10: Fused VHH9-MMAF (conjugate)
VHH: EVQLVESGGGLVQAGGSLRLSCAASGITFSINTMGWYRQAPGKQRELVALISSIGDTYYADSVKGRFTISRDNAKNTVYLQMNCLKPEDTAVYYCKRFRTAAQGTDYWGQGTQVTVSSHHHHHHGGGSDEDLLHI
B11: Fused VHH21-MMAF (conjugate)
VHH: EVQLVESGGGLVQAGGSLRLSCAASGITFSINTMGWYRQAPGKQRELVALISSIGDTYYADSVKGRFTISRDNAKNTVYLQMNCLKPEDTAVYYCKRFRTAAQGTDYWGQGTQVTVSSHHHHHHLPETGGGRRLRKSFHDDSDEDLLHI
B12: Fused VHH22-MMAF (conjugate)
VHH: B11 VHH with L134R
B13: Fused VHH10-MMAF (conjugate)
VHH: EVQLVESGGGLVQAGGSLRLSCAASGITFSINTMGWYRQAPGKQRELVALISSIGDTYYADSVKGRFTISRDNAKNTVYLQMNCLKPEDTAVYYCKRFRTAAQGTDYWGQGTQVTVSSHHHHHHGGGGGSDEDLLHI
B14: Fused VHH11-MMAF (conjugate)
VHH: B13 VHH with G129S
B15: Fused VHH20-MMAF (conjugate)
VHH: EVQLVESGGGLVQAGGSLRLSCAASGITFSINTMGWYRQAPGKQRELVALISSIGDTYYADSVKGRFTISRDNAKNTVYLQMNCLKPEDTAVYYCKRFRTAAQGTDYWGQGTQVTVSSHHHHHHLPETGGGRRRSFHDDSDEDLLHI
B16: Fused VHH2-MMAF (conjugate)
VHH: EVQLVESGGGLVQAGGSLRLSCAASGITFSINTMGWYRQAPGKQRELVALISSIGDTYYADSVKGRFTISRDNAKNTVYLQMNCLKPEDTAVYYCKRFRTAAQGTDYWGQGTQVTVSSHHHHHHLPETGGGRRRASVSLLDDELMSL
B17: Fused VHH7-MMAF (conjugate)
VHH: EVQLVESGGGLVQAGGSLRLSCAASGITFSINTMGWYRQAPGKQRELVALISSIGDTYYADSVKGRFTISRDNAKNTVYLQMNCLKPEDTAVYYCKRFRTAAQGTDYWGQGTQVTVSSHHHHHHLPETGGGSDEDLLHI
B18: Fused VHH12-MMAF (conjugate)
VHH: EVQLVESGGGLVQAGGSLRLSCAASGITFSINTMGWYRQAPGKQRELVALISSIGDTYYADSVKGRFTISRDNAKNTVYLQMNCLKPEDTAVYYCKRFRTAAQGTDYWGQGTQVTVSSHHHHHHGGGGSGGGGSGGGGSSDEDLLHI
B19: Fused VHH23-MMAF (conjugate)
VHH: EVQLVESGGGLVQAGGSLRLSCAASGITFSINTMGWYRQAPGKQRELVALISSIGDTYYADSVKGRFTISRDNAKNTVYLQMNCLKPEDTAVYYCKRFRTAAQGTDYWGQGTQVTVSSHHHHHHHLPETGGGRKRSHAGYQTI
B20: Fused VHH5-MMAF (conjugate)
VHH: EVQLVESGGGLVQAGGSLRLSCAASGITFSINTMGWYRQAPGKQRELVALISSIGDTYYADSVKGRFTISRDNAKNTVYLQMNCLKPEDTAVYYCKRFRTAAQGTDYWGQGTQVTVSSHHHHHHLPETGGGVQNPSADRNLLDL
B21: Fused VHH1-MMAF (conjugate)
VHH: B20 VHH with V132A, Q133S, N134V, P135S, S136L, A137L, R139D, N140E, L142M, D143S
B22: Fused VHH13-MMAF (conjugate)
VHH: B20 VHH with V132S, Q133F, N134H, P135D, S136D, A137S, R139E, N140D, D143H, L144I
B23: Fused VHH14-MMAF (conjugate)
VHH: B20 VHH with V132E, Q133E, N134S, P135E, S136E, A137R, R139D, N140H, D143P, L144M
B24: Fused VHH19-MMAF (conjugate)
VHH: B20 VHH with V132R, Q133R, N134R, P135R, S136K, A137S, R139E, N140D, D143H, L144I
B25: Fused VHH17-MMAF (conjugate)
VHH: EVQLVESGGGLVQAGGSLRLSCAASGITFSINTMGWYRQAPGKQRELVALISSIGDTYYADSVKGRFTISRDNAKNTVYLQMNCLKPEDTAVYYCKRFRTAAQGTDYWGQGTQVTVSSHHHHHHLPETGGGRRRSDEDLLHI
B26: Fused VHH25-MMAF (conjugate)
VHH: EVQLVESGGGLVQAGGSLRLSCAASGITFSINTMGWYRQAPGKQRELVALISSIGDTYYADSVKGRFTISRDNAKNTVYLQMNCLKPEDTAVYYCKRFRTAAQGTDYWGQGTQVTVSSHHHHHHHLPETGGGKHHHAGYEQF
B27: Fused VHH18-MMAF (conjugate)
VHH: EVQLVESGGGLVQAGGSLRLSCAASGITFSINTMGWYRQAPGKQRELVALISSIGDTYYADSVKGRFTISRDNAKNTVYLQMNCLKPEDTAVYYCKRFRTAAQGTDYWGQGTQVTVSSHHHHHHLPETGGGRRLRSDEDLLHI

test system: SKBR3 cells; experiment: In-vitro cytotoxicity, CCK8 cell viability; assay type: cell-based, human; conditions: SKBR3, 48 h, CCK8
Procedure: (§1) In this example, human breast cancer cell line SKBR3 with high expression of HER2 and human ovarian cancer cell line SKOV3 with high expression of HER2 were chosen to evaluate the ability of the recombinant-fusion-antibody-drug conjugates to inhibit the growth of cancer cells. The recombinant-fusion-antibody-drug conjugates of different concentrations were added to a 96-well plate seeded with SKBR3 or SKOV3 cells. After treatment for 48 h, the viability of cells was calculated using a CCK8 kit.
Cell viability was measured using different concentrations of MMAF, VHH0-MMAF, or different recombinant-fusion-nanobody-drug conjugates (fused VHH1-MMAF to fused VHH26-MMAF). The half-maximal inhibitory concentration IC50 was calculated (FIGS. 14A-14C, and Table 7). FIGS. 14A, 14B and 14C respectively show the viability of SKBR3 cells treated with the recombinant-fusion-nanobody-drug conjugates, including fused VHH1-MMAF to fused VHH6-MMAF, fused VHH7-MMAF to fused VHH22-MMAF, and fused VHH23-MMAF to fused VHH26-MMAF. […] Data are expressed as the mean (n=3).
SKBR3 and SKOV3 cells were chosen to evaluate the ability of the recombinant-fusion-full-length-antibody-drug conjugates to inhibit the growth of cancer cells. […] The half-maximal inhibitory concentration IC50 was calculated.

Row | Molecule | viability of the treated cells | maximal killing
1 | B1 | approximately 100% | 
2 | B2 |  | about 50%

same assay, conditions: SKBR3, 48 h, CCK8, mean n=3; Table 7

Row | Molecule | IC50 [nM]
3 | B3 | 0.109
4 | B4 | 0.027
5 | B5 | 0.051
6 | B6 | 0.885
7 | B7 | 0.791
8 | B8 | 0.128
9 | B9 | 0.095
10 | B10 | 0.294
11 | B11 | 0.016
12 | B12 | 0.014
13 | B13 | 0.232
14 | B14 | 0.16
15 | B15 | 0.038
16 | B16 | 0.126
17 | B17 | 0.336
18 | B18 | 0.14
19 | B19 | 0.098
20 | B20 | 0.791
21 | B21 | 1.34
22 | B22 | 0.0798
23 | B23 | 0.069
24 | B24 | 0.564
25 | B25 | 0.165
26 | B2 | 1.57
27 | B26 | 0.466
28 | B27 | 0.394

test system: MDA-MB-231 cells; experiment: In-vitro cytotoxicity, HER2-negative negative control; assay type: cell-based, human; conditions: MDA-MB-231, FIG. 15
Procedure: as §1
In addition, in this example, the HER2-negative MDA-MB-231 cells were chosen as a negative control to compare the ability of fused VHH7-MMAF, fused VHH8-MMAF, VHH0-MMAF, VHH0, and MMAF to inhibit the growth of cancer cells.

Row | Molecule | cytotoxicity in HER2-negative cells
29 | B17 | none of the substances are cytotoxic
30 | B1 | none of the substances are cytotoxic
31 | B2 | none of the substances are cytotoxic
